Experimental data published in PMC10801562 (Antibodies, 2024).
Numbering of substitutions follows the chain as printed.

T1: recombinant human CD3ε-CD3δ heterodimeric protein (CD3εδ) (Homo sapiens)
T1 construct: human CD3ε of the recombinant CD3εδ heterodimer; human CD3δ of the recombinant CD3εδ heterodimer; source: in-house prepared
T1 chain 1: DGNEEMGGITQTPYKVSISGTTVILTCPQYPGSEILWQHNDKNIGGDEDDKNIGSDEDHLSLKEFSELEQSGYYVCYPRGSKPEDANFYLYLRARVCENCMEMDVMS
T1 chain 2: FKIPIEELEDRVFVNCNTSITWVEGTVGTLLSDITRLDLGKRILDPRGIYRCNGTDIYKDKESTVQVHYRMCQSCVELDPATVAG

B1: mSP34 mIgG2a, homodimeric antibody without FAST-Ig mutations (antibody, V domains shown)
VH: EVQLVESGGGLVQPKGSLKLSCAASGFTFNTYAMNWVRQAPGKGLEWVARIRSKYNNYATYYADSVKDRFTISRDDSQSILYLQMNNLKTEDTAMYYCVRHGNFGNSYVSWFAYWGQGTLVTVSA
VL: QAVVTQESALTTSPGETVTLTCRSSTGAVTTSNYANWVQEKPDHLFTGLIGGTNKRAPGVPARFSGSLIGDKAALTITGAQTEDEAIYFCALWYSNLWVFGGGTKLTVL
notes: VH of the original mouse antibody mSP34; mouse IgG2a (mIgG2a) heavy chain constant region; numbers count on: Eu numbering; VL (lambda) of the original mouse antibody mSP34; mouse lambda light chain constant region (CL); Whole IgG of one HC and one LC; also called anti-CD3; H2L2H2L2; source: Expi293F, transiently expressed, purified (Ab-Capcher MAG2, MonoSpin ProA or MonoSpin ProG); copies: 2 + 2
B2: mSP34 mIgG1, homodimeric antibody without FAST-Ig mutations (antibody, V domains shown)
VH: B1 VH
VL: B1 VL
notes: VH of the original mouse antibody mSP34; mouse IgG1 (mIgG1) heavy chain constant region; numbers count on: Eu numbering; VL (lambda) of the original mouse antibody mSP34; mouse lambda light chain constant region (CL); Whole IgG of one HC and one LC; also called anti-CD3; H2L2H2L2; source: Expi293F, transiently expressed, purified (Ab-Capcher MAG2 or MonoSpin ProG); copies: 2 + 2
B3: mSP34 mIgG2a V1+C19, homodimeric antibody with FAST-Ig V1+C19 mutations (antibody, V domains shown)
VH: B1 VH with Q39E
VL: B1 VL with E40K
notes: VH of mSP34; mouse IgG2a (mIgG2a) heavy chain constant region; numbers count on: Eu numbering; VL (lambda) of mSP34; mouse lambda light chain constant region (CL); numbers count on: Kabat numbering; Whole IgG of one HC and one LC; also called anti-CD3; H2L2H2L2; source: Expi293F, transiently expressed, purified (Ab-Capcher MAG2, MonoSpin ProA or MonoSpin ProG); copies: 2 + 2
B4: mUCHT1 mIgG2a, homodimeric antibody without FAST-Ig mutations (antibody, V domains shown)
VH: EVQLQQSGPELVKPGASMKISCKASGYSFTGYTMNWVKQSHGKNLEWMGLINPYKGVSTYNQKFKDKATLTVDKSSSTAYMELLSLTSEDSAVYYCARSGYYGDSDWYFDVWGQGTTLTVFS
VL: DIQMTQTTSSLSASLGDRVTISCRASQDIRNYLNWYQQKPDGTVKLLIYYTSRLHSGVPSKFSGSGSGTDYSLTISNLEQEDIATYFCQQGNTLPWTFAGGTKLEIK
notes: VH of the original mouse antibody mUCHT1; mouse IgG2a (mIgG2a) heavy chain constant region; numbers count on: Eu numbering; VL of the original mouse antibody mUCHT1; mouse kappa light chain constant region (CL); Whole IgG of one HC and one LC; also called anti-CD3; H2L2H2L2; source: Expi293F, transiently expressed, purified (Ab-Capcher MAG2, MonoSpin ProA or MonoSpin ProG); copies: 2 + 2
B5: mUCHT1 mIgG1, homodimeric antibody without FAST-Ig mutations (antibody, V domains shown)
VH: B4 VH
VL: B4 VL
notes: VH of the original mouse antibody mUCHT1; mouse IgG1 (mIgG1) heavy chain constant region; numbers count on: Eu numbering; VL of the original mouse antibody mUCHT1; mouse kappa light chain constant region (CL); Whole IgG of one HC and one LC; also called anti-CD3; H2L2H2L2; source: Expi293F, transiently expressed, purified (Ab-Capcher MAG2 or MonoSpin ProG); copies: 2 + 2
B6: mUCHT1 mIgG2a V1+C19, homodimeric antibody with FAST-Ig V1+C19 mutations (antibody, V domains shown)
VH: B4 VH with Q39E
VL: B4 VL with Q38K
notes: VH of mUCHT1; mouse IgG2a (mIgG2a) heavy chain constant region; numbers count on: Eu numbering; VL of mUCHT1; mouse kappa light chain constant region (CL); numbers count on: Kabat numbering; Whole IgG of one HC and one LC; also called anti-CD3; H2L2H2L2; source: Expi293F, transiently expressed, purified (Ab-Capcher MAG2, MonoSpin ProA or MonoSpin ProG); copies: 2 + 2

Target: T1, recombinant human CD3ε-CD3δ …
Assay: SPR; Biacore T200, 37 °C, pH 7.4, PB-P+; antibody captured (630 RU) by anti-mouse IgG (Fc) antibody on a CM4 chip; human CD3εδ as analyte, 1.2-4800 nmol/L; 1:1 binding model (mUCHT1, mSP34)
Conditions: both partners purified

Row | Binder | Kd
1 | B1 | 16 nM
2 | B2 | 20.9 nM
3 | B3 | 25.7 nM
4 | B4 | 1.02 nM
5 | B5 | 1.45 nM
6 | B6 | 1.32 nM
